Measurements from the supplement of paper PMC9170038.

Assays:
[1] = test system: MS2 coat protein; assay: apparent KD of MS2 coat protein, switch OFF state (with FMN for OFF switches, without FMN for ON switches); designed switch direction (-1 OFF switch, 1 ON switch): 1; higher = weaker reporter binding; details: FMN input: 0 or 200 uM; Eterna round: R93 (includes R88 designs)
Summary of the method: (§1)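 Apparent KD per design is the median of normalised cluster binding-curve fits. Designed RNA switches transcribed on-chip from Illumina sequencing clusters were titrated with SNAP-549-labelled MS2 coat protein in twofold steps from 0.7 or 1.5 nM to 3 µM, with 0.8–1.5 h down to 10–20 min per step. Buffer: 100 mM Tris-HCl pH 7.5, 80 mM KCl, 4 mM MgCl2, without or with constant ligand.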

[2] = test system: MS2 coat protein; assay: apparent KD of MS2 coat protein, switch ON state; designed switch direction (-1 OFF switch, 1 ON switch): 1; higher = weaker reporter binding; details: FMN input: 0 or 200 uM; Eterna round: R93 (includes R88 designs)
Summary of the method: as §1

| Sequence | apparent KD of MS2 coat protein [1] [nM] | apparent KD of MS2 coat protein [2] [nM] |
| --- | --- | --- |
| AAAAAACAUGAGGAUCACCCAUGUGAAGAUAUGGAAGGAUAUACAAAGACGAAAGUCAAAGUAGAAGGUCUAAAAG [76%, Meechl 3] | 17.7 | 17.1 |
| CCGAUACAUGAGGAUCACCCAUGUUAGGUAGAACAAGGAUAUCUAGAUAGAUAAAAAUAUAGAGAAGGUGUAUAAC [JR_SS001_Sub208] | 26 | 17.1 |
| UGGAGACAUGAGGAUCACCCAUGUGAGAAGAGGCGAGGAUAUCGAAAGAAAGAAGAGAAACGAGAAGGCGCGAGAU [salish99-SS1-034] | 27.6 | 21 |
| AAGAAACAUGAGGAUCACCCAUGUAAGAUAAACACAGGAUAUGCGAAAAGAAACAAAUAAGCAGAAGGGUGAAGAA [Mat - Same State 1 - Tesla mod - 64] | 23 | 16.3 |
| AUGAAAGUAACACAGGAUAUCGAGGAUACAACAUGAGGAUCACCCAUGUACAUACGAACGUAUAACGAGAAGGGUGGAUGAUCUUC [ss2] | 62.8 | 140 |
| AAAUAAAUGACUGAGGAUAUAUCGAUGAGUACAUGAGGAUCACCCAUGUGAUAAUAAAAAGGGUGGUAGAAGGUAGUCAACAAAC [Mod 14 of Pariah 4 by Hyphema in Round 1] | 150 | 185 |
| GAAAAACAUGAGGAUCACCCAUGUGUAAACAUGGGAGGAUAUACGAAGACGUAAGUCAAAGUAGAAGGCCUAAAAG [Garnet 36] | 24.9 | 47.1 |
| AGCACGUGAUUGGAGGAUAUGUAGUAAGCAACAUGAGGAUCACCCAUGUCUGAGGCUGAAAAGCAGCAGAAGGCCGAUACAACCA [SS2-1.5] | 19.2 | 18.2 |
| UGUCUACCUGAUGAGGAUAUCCCACAGGCGACAUGAGGAUCACCCAUGUAAAGUAAGCGUAGGCGGGAGAAGGCAUGGCGGAGAC [Larearre] | 30.7 | 14.5 |
| AAUAACAAAAGAAAGGAUAUAUAAACAGGAACAUGAGGAUCACCCAUGUGCCGCCAAGGCGGAUAAUAGAAGGUUCACAUGCAUA [Default title] | 25.3 | 47 |
| AAAAAACAUGAGGAUCACCCAUGUGCAAAAUUCGCAGGAUAUUCCUCAAUUAAAUGAGAGGAAGAAGGGUGUAAAA [Nob's Hobby 25 - Jieux - Same State 1] | 130 | 27.4 |
| AAGAAACAUGAGGAUCACCCAUGUAGAAAUAUGGGAGGAUAUACAAAGACGAAAGUCAAAGUAGAAGGCCUGAAAG [Mat - Same State 1 - Eli mod - 84] | 72.4 | 38.5 |
| AAUAUACAUGAGGAUCACCCAUGUUAGGUGGGACUAGGAUAUCAAAAGAAAGAGUAAGAAUGAGAAGGAGUAGAAA [JR_SS001_Sub016] | 240 | 145 |
| AAGAAACAUGAGGAUCACCCAUGUGAUAAUAUGGGAGGAUAUACAAAGACGAAAGACGAAGUAGAAGGCCUAUGAA [Garnet 44] | 124 | 49 |
| GAAAUACAUGAGGAUCACCCAUGUUAGGUGGAUCAAGGAUAUCAAGGUAAAUAAAAACCUUGAGAAGGUGAAUAAA [JR_SS001_Sub204] | 141 | 87.8 |
| AAUAUAUUAUUUAAGGAUAUCAUAGGAAAAACAUGAGGAUCACCCAUGUGGGAAACCUGGUCGGGUGAGAAGGUGGAUAAUAUAU [Samwise Clockwise 34 - Jieux - Same State 2] | 317 | 93.7 |
| AGAAAACAUGAGGAUCACCCAUGUAGAAAUAUGGGAGGAUAUACGAAGACGAAAGUCAAAGUAGAAGGCCUAAAAG [Mat - Same State 1 - Eli mod - D102] | 69.8 | 22 |
| AUAUGCAUAGACAAGGAUAUCGGUCUAGAAACAUGAGGAUCACCCAUGUAAGUGAAAAUCUGUAAUGAGAAGGUGUUGUUGGGUU [Isan] | 89.4 | 75 |
